Data on one substance can be found in patent US20230303674A1.

In test [1] the target is human α-CGRP fragment 25-37 (human). In words: Biacore SPR, 25 °C, Fab flowed over biotinylated peptide on SA chip; mean ± SD of two measurements. A general note: SPR reads the build-up and loss of mass on a sensor chip optically.
Test [2] deals with human α-CGRP fragment 19-37 (human). Described as above.
Test [3] deals with human α-CGRP 1-37 (WT) (human). In words: Biacore 25°C, Fab over biotinylated CGRP on SA chip.
In test [4] the target is human α-CGRP K35A (19-37) (human). In words: Biacore SPR, 25 °C, Fab over peptide on chip; KD ratio to parent 19-37.
For test [5], the target named is human α-CGRP 1-37 (WT) (human). Nature of the test: Biacore 37°C, Fab over biotinylated CGRP on SA chip.
In a further test the target is rat α-CGRP (1-37) (rat). Described as above.
For test [6], the target named is human α-CGRP T30A (25-37) (human). Nature of the test: Biacore SPR, 25 °C, Fab over peptide on chip; KD ratio to parent 25-37.
The target in test [7] is human α-CGRP S34A (25-37) (human). The description is as above.
Test [8] concerns the target human α-CGRP F37A (25-37) (human). The test is described as above.
Test [9] deals with human α-CGRP G33A (25-37) (human). The test is described as above.
Test [10] deals with human α-CGRP N31A (25-37) (human). The test is described as above.
The target of test [11] is human α-CGRP P29A (25-37) (human). Described as above.
Test [12] deals with human α-CGRP F27A (25-37) (human). The description is as above.
The target of test [13] is human α-CGRP V32A (25-37) (human). The description is as above.
Test [14] concerns the target human α-CGRP V28A (25-37) (human). The description is as above.

pKd: −log10 of the molar value.

Sequence of human α-CGRP 1-37 (WT) (human) (peptide, as listed by the source): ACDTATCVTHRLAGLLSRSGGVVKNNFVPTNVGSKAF
Sequence of rat α-CGRP (1-37) (rat) (peptide, as listed by the source): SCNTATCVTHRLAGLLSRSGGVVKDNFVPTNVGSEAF

As a reminder, the pKd is the Kd on a negative log10 scale, so that one unit is a factor of ten. Higher therefore signals a low Kd. “murine anti-CGRP monoclonal antibody 7E9, Fab fragment”: the pKd is 9.85 in [1]; 8.96 in [2]; 9.00 in test [3]; 9.05 in [5]; 7.33 with rat α-CGRP (1-37) (rat). The KD(mutant/parent) turned out to be 4 in test [4]; 7 in [6]; 69 in test [7]; 3600 in test [8]; 1260 in test [9]; 9 in test [10]. The KD(mutant/parent) worked out at 26 in test [11], 1 in test [12], 41 in test [13] and 1 in test [14].
